Where a chain is given by its changes, count along the chain named. One block for each binder: values may come before it.
Experiments:
[1] = molecular target: T1, H/M BglI chimeric TNFα (human 1-36, murine 37-157) (human; mouse, UniProt P06804 81-235); assay: ELISA on expressed TNFα constructs
T1 construct: Murine range is printed as 37-157 in human-aligned numbering; also called H/MBgl1; Hu/MBgl1
T1 chain: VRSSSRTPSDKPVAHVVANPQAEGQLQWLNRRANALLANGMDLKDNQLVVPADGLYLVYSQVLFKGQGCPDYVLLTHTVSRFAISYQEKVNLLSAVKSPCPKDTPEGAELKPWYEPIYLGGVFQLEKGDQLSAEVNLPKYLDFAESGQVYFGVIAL

[2] = molecular target: T2, H/M PvuII chimeric TNFα (human 1-125, murine 126-157) (human; mouse); assay: ELISA on expressed TNFα constructs
T2 construct: also called Hu/M PVu11
T2 chain: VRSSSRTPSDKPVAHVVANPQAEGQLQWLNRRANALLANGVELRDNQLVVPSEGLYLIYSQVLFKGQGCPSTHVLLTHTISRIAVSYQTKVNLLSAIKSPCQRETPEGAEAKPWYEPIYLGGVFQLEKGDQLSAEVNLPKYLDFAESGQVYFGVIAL

[3] = molecular target: T3, H/M HincII chimeric TNFα (human 1-91, murine 92-157) (human; mouse); assay: ELISA on expressed TNFα constructs
T3 construct: Murine range printed 92-157 (human-aligned); also called Hu/M Hin C l1
T3 chain: T2 chain with I97V, Q102P, R103K, E104D, A111L

human TNFα R131Q mutant = human TNFα R131Q mutant (human, UniProt P01375 77-233); assay: ELISA on chimeric/mutant TNFα
Description: (§1) In order to define the binding site for different antibodies, a number of residues of hTNFα were mutated using site directed mutagenesis. A panel of antibodies was screened for binding by an ELISA assay. […] Histidine at position 73 was deleted, an example is illustrated in Table 19.

[4] = molecular target: T4, human TNFα (Tumor Necrosis Factor-alpha), soluble (human, UniProt P01375 77-233); assay: cell-based or functional assay
[5] = molecular target: T5, monkey (cynomolgous macaque) GST-TNFα (cynomolgous macaque, UniProt P79337 77-233); assay: ELISA, plate coated with 2 µg/ml monkey (cynomolgus macaque) GST-TNFα, HRP goat anti-human IgG detection
T5 construct: also called E. coli expressed soluble cynomolgous macaque monkey TNF; monkey TNFα; not shown: GST fusion partner
Protocol: (§2) Anti-TNFα antibodies were also tested for their ability to bind to soluble recombinant TNFα. Human and monkey (cynomolgous macaque) TNFα were expressed in E. coli as fusion proteins with GST. Binding was assessed by ELISA. […] Bound antibody was detected using an HRP-conjugated goat anti-human IgG antibody.

[6] = molecular target: T4, human TNFα (Tumor Necrosis …); assay: cell-based or functional assay; remark: listed apart in the source
mouse TNFα = molecular target: T6, mouse TNFα (mouse, UniProt P06804 80-235); assay: binding to chimeric TNF proteins
T6 construct: also called M TNFα; murine TNF
T6 sequence: T1 chain with V1L, R6Q, T7N, P8S, P20H, A22V, G24E, Q27E, N30S, R31Q

[7] = molecular target: T4, human TNFα (Tumor Necrosis …); assay: cell-based or functional assay; remark: listed apart in the source
human TNFα R31Q mutant = human TNFα R31Q mutant (human, UniProt P01375 77-233); assay: ELISA on chimeric/mutant TNFα
Chain of human TNFα R31Q mutant (P01375 77-233 R107Q): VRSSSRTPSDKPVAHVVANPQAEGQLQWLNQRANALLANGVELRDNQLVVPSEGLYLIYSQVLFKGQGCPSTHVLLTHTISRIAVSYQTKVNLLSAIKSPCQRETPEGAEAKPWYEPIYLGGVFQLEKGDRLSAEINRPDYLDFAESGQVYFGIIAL
Description: as §1

[8] = molecular target: human TNFα R31Q, Q27E mutant (human, UniProt P01375 77-233); assay: ELISA on chimeric/mutant TNFα
Description: as §1

[9] = molecular target: T4, human TNFα (Tumor Necrosis …); assay: KinExA, TNFα counted as three monomers
Protocol: (§3) The kinetic measurements of the anti-TNFα antibodies were evaluated using KinExA® and BIACORE® technologies. The KinExA® method involves solution-based determination of formal affinity measurements at equilibrium. To measure the binding kinetics of each human anti-TNFα antibody, two experiments in replicates of three were performed. In both experiments a known concentration of antigen was titrated and a different antibody concentration was added to each antigen titration and allowed to reach binding equilibrium. […] The results were analyzed by dual curve analysis. […] In addition, to negate the possibility of avidity effects, Fab fragments were generated by papain cleavage and the kinetic analysis was repeated (see Table 24).

human GST-TNFα = molecular target: T7, human GST-TNFα (human, UniProt P01375 77-233); assay: ELISA, plate coated with 0.5 µg/ml human GST-TNFα, HRP goat anti-human IgG detection
T7 construct: also called E. coli expressed soluble human TNF; not shown: GST fusion partner
Protocol: as §2

[10] = molecular target: transmembrane mutant TNFα expressed on the surface of CHO cells (UniProt P01375 1-233); assay: cell-based or functional assay
Chain of transmembrane mutant TNFα expressed on the surface of CHO cells (P01375 whole entry, change not shown, form in doubt): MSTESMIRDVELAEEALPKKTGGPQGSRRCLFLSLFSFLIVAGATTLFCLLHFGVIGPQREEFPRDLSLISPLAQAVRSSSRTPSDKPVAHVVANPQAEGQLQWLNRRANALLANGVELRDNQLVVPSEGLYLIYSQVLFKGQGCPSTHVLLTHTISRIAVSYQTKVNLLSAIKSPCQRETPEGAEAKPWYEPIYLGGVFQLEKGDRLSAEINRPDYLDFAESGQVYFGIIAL

[11] = molecular target: T4, human TNFα (Tumor Necrosis …); assay: KinExA, TNFα counted as one trimer
Protocol: as §3

[12] = molecular target: T4, human TNFα (Tumor Necrosis …); assay: KinExA, TNFα counted as one trimer; KinExA in solution; TNFα site concentration as one trimer (52.5 kDa)
Protocol: as §3

[13] = molecular target: T4, human TNFα (Tumor Necrosis …); assay: KinExA, TNFα counted as one trimer; KinExA, one trimer (52.5 kDa); lower bound of the Kd fit
Protocol: as §3

[14] = molecular target: T4, human TNFα (Tumor Necrosis …); assay: KinExA, TNFα counted as three monomers; KinExA in solution; TNFα site concentration as three monomers (17.5 kDa)
Protocol: as §3

[15] = molecular target: T4, human TNFα (Tumor Necrosis …); assay: KinExA, TNFα counted as three monomers; KinExA, three monomers (17.5 kDa); upper bound of the Kd fit
Protocol: as §3

[16] = molecular target: T4, human TNFα (Tumor Necrosis …); assay: KinExA, TNFα counted as one trimer; KinExA, one trimer (52.5 kDa); upper bound of the Kd fit
Protocol: as §3

[17] = molecular target: T4, human TNFα (Tumor Necrosis …); assay: KinExA, unknown antigen concentration method
Protocol: as §3

[18] = molecular target: T1, H/M BglI chimeric TNFα (human 1-36, …); assay: ELISA on chimeric/mutant TNFα
Description: as §1

[19] = molecular target: T2, H/M PvuII chimeric TNFα (human 1-125, …); assay: ELISA on chimeric/mutant TNFα
Description: as §1

[20] = molecular target: T3, H/M HincII chimeric TNFα (human 1-91, …); assay: ELISA on chimeric/mutant TNFα
Description: as §1

[21] = molecular target: T4, human TNFα (Tumor Necrosis …); assay: cell-based or functional assay; remark: listed apart in the source

B2: 263 (antibody, human IgG1, V domains shown)
VH: EVQLVESGGGLIQPGGSLRLSCAASGFTVSRNYMSWVRQAPGKGLEWVSVIYSGDRTYYADSVKGRFTISRDNSKNTLYLQMNSLRAEDTAVYYCARGEGGFDYWGQGTLVTVSS
VL: EIVMTQSPATLSVSPGERATLSCRASQSVSSNLAWYQQKPGQAPRLLIHGASIRATGLPARFSGSGSGTEFTLTISSLQSEDFAVYYCQQYNYWWTFGQGTKVEIK
notes: XENOMAX derived, recombinant human IgG1 kappa; also called SC263
IC50 1 hr Pre-incubation, TNF induced apoptosis in MCF-7 cells [4]: 59.5 pM
IC50 18 hr Pre-incubation, TNF induced apoptosis in MCF-7 cells [4]: 37 pM
binding result [5]: no binding (tested: 100 ng/ml)
In vivo Potency (IC50), ALT, hTNFα/D-GalN hepatic injury in mice [6]: 48000 pM
In vivo Potency (IC50), human TNFα-induced IL-6 in mice [6]: 35000 pM
binding result (mouse TNFα): no binding
Whole Blood IC50, TNFα-induced IL-8 production [7]: 524 pM
binding result (human TNFα R31Q mutant): binds
binding result [8]: binds
binding result (human TNFα R131Q mutant): binds
Kd [9]: 11.2 pM
EC50 (read off the curve) (human GST-TNFα): ~3 ng/mL
ADCC (%) [10]: 10%
CDC (%) [10]: 17%
Kd [11]: 3.73 pM

B3: 3.2 (hybridoma, IgG2) (antibody, V domains shown)
VH: EVQLVQSGAEVKKPGESLKISCKTSEYSFTSYWIGWVRQMPGKGLEWMGIIYLGDSDTRYSPSFQGQVTISADKSISTAYLQWSSLKASDTAMYYCARSNWGLDYWGQGTLVTVSS
VL: QSVLTQPPSVSGAPGQRVTISCTGSSSNIGAGYDVHWYQQFPGTAPKLLIQGNSNRPSGVPDRFSGSKSGTSASLAITGLQAEDEADYYCQSYDSSLSGSVFGGGTKLTVL
notes: Hybridoma derived human IgG2, lambda light chain (V1-13/JL3); also called 3.2 Ab; 3.2.1
Kd [12]: 4.77 pM
Kd (M) Low [9]: 7.3e-12 M
Kd (M) Low [13]: 2.43e-12 M
Kd [14]: 14.3 pM
Kd (M) High [15]: 2.3e-11 M
Kd (M) High [16]: 7.6e-12 M

The next lines start with results.

binding result [1]: binds
binding result [2]: binds
binding result [3]: binds
binding result (human TNFα R131Q mutant): binds
B1: 4.17 (hybridoma, IgG2) (antibody, V domains shown)
VH: QVQLVESGGGVVQPGRSLRLSCTTSGFTFSNYGMHWVRQAPGKGLEWVAVIWYDGSIKYYVDSVKGRFTISRDNSKNTLYLQMNSLRAEDTAVYYCAREKDCGGDCYSHYGMDVWGQGTTVTVSS
VL: DIQMTQSPSSLSASVGDRVTITCRASQGIRNDLGWYQQKPGKAPKRLIYAASSLQSGVPSRFSGSGSGTEFTLTISSLQPEDFATYYCLQHMSLPLTFGGGTKVEIK
notes: Hybridoma derived human IgG2 kappa

binding result [18]: binds
binding result [19]: binds
binding result (human TNFα R31Q mutant): binds
binding result [8]: binds
binding result (human TNFα R131Q mutant): binds
binding result [20]: binds
B4: Rabbit R014 (AB-TNFα-R014) (antibody, rabbit IgG1, V domains shown)
VH: QSLEESGGRLVTPGTPLTLTCTVSGIDLSSNTMGWFRRAPGKGLEWIGIIISSGTTYYASWVKGRFTISKTSTTVDLKITRPTTEDTATYFCARGWYEFNLWGPGTLVTVSS
VL: DVVMTQTPASVEAAVGGTVTIKCQASENIDILLAWYQQKVGQPPKLLIYRASKLASGAPSRFSGSGSGTEFTLTISDLECGDAATYYCQSNVGSTARSSYGNAFGGGTEVVVK
notes: Fully rabbit antibody, rabbit IgG1 heavy and kappa constant regions; cloned from well 7A4; also called RO14; Rabbit 014
Kd [17]: 0.787 pM
Kd (M) High [17]: 2.47e-12 M
Kd (M) Low [17]: 1.56e-13 M
Average IC50, TNF induced apoptosis on MCF-7 cells, 1 hour pre-incubation [21]: 14.2 pM

Reference: US20050049402A1 (Amgen, published 2005)
